Laboratory results: patent publication US20250019426A1 (UCT BIOSCIENCE, published 2025)

Tests used:
[1] = target: T1, recombinant GRP78 protein (human, UniProt P11021 19-650, limits assumed); assay: Biacore SPR, multi-cycle kinetics, GRP78 amine-coupled to the chip, G2D03 as analyte 0.625-10 nM, 1:1 fit, kd/ka
T1 construct: also called HSPA5/GRP78 (Active Protein) Human Protein (ORIGENE, Cat. No. AR03021PU-L); glucose-regulated protein 78
From the text: (§1) This ligand has the optimum pH 4.0 condition for direct immobilization by pH scouting test. With amine coupling method, carboxyl groups on the surface of the sensor chip surface are first activated with a mixture of EDC and NHS to give reactive succinimide esters. GRP78 is then passed over the surface and the esters react with primary amine groups to link the ligand covalently to the dextran matrix. The target level of the GRP78 protein is about 300 RU.
(§2) For the multi-cycle kinetics analysis, the chip surface level is 291.2 RU and the analyte concentration is used for the moderate Rₘₐₓ, which is running through the conditions in the assay. The concentrations of the anti-GRP78 antibody G2D03 are: 0.625 nM, 1.25 nM, 2.5 nM, 5 nM and 10 nM. Set the flow rate at 30 μL/min. Association time is 120 seconds. Dissociation time is 360 seconds. Regeneration buffer is performed using 10 mM glycine-HCl pH 1.7. […] The binding affinity of the anti-GRP78 antibody G2D03 is better than the conventional anti-GRP78 antibody C38.

[2] = target: T1, recombinant GRP78 protein; assay: Biacore SPR, multi-cycle kinetics, GRP78 amine-coupled to the chip, G2D03 as analyte 0.625-10 nM, 1:1 fit
From the text: as §1, §2

T1 sequence (P11021 19-650 limits assumed): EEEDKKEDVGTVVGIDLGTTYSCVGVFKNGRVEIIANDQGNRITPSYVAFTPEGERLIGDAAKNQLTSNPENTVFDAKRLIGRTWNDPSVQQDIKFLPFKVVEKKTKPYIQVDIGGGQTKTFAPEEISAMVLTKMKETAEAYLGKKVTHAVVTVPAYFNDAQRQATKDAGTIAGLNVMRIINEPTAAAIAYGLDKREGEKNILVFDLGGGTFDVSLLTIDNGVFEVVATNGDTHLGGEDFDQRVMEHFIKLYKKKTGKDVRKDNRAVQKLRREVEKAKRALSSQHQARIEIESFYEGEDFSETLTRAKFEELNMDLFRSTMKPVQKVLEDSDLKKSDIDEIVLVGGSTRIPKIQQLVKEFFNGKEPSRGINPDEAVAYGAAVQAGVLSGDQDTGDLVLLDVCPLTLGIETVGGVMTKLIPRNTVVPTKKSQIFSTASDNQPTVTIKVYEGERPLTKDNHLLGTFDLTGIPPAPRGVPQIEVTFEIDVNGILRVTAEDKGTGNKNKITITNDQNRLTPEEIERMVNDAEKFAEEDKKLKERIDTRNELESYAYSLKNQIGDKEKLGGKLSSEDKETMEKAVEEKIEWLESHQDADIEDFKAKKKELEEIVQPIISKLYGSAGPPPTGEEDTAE

- Kd [1]: 74.4 pM
- koff [2]: 0.000254 s⁻¹
- kon [2]: 3.42e+06 M⁻¹ s⁻¹
B1: anti-GRP78 antibody G2D03 (antibody, V domains shown)
VH: EVQLVESGGGLVQPGGSLRLSCAASGFTFSQYAMAWVRQAPGKGLEWVSGISPYGSNTRYADSVKGRFTISRDNSKNTLYLQMNSLRAEDTAVYYCARNGGYSYTWFDLWGQGTLVTVSS
VL: DIQMTQSPSSLSASVGDRVTITCRASQSISSDLAWYQQKPGKAPKLLIYWASKLQSGVPSRFSGSGSGTDFTLTISSLQPEDFATYYCMQMYNTPPTFGQGTKVEIKR
notes: Detected with anti-human IgG; also called G2D03 mAb; anti-GRP78 monoclonal antibody (G2D03)
